Measured values: US20240294608A1, “ELP FUSION PROTEINS FOR CONTROLLED AND SUSTAINED RELEASE” (ImmunoForge Co., LTD., priority 2016, published 2024)
Values belong to the molecule of their own block, whether it stands above or below them.

Columns and labels:
GLP-2 receptor [1] = target: T1, GLP-2 receptor (Homo sapiens, UniProt O95838); test: Cell-based cAMP potency assay; details: read-out: ECso
T1 sequence (O95838 1-553): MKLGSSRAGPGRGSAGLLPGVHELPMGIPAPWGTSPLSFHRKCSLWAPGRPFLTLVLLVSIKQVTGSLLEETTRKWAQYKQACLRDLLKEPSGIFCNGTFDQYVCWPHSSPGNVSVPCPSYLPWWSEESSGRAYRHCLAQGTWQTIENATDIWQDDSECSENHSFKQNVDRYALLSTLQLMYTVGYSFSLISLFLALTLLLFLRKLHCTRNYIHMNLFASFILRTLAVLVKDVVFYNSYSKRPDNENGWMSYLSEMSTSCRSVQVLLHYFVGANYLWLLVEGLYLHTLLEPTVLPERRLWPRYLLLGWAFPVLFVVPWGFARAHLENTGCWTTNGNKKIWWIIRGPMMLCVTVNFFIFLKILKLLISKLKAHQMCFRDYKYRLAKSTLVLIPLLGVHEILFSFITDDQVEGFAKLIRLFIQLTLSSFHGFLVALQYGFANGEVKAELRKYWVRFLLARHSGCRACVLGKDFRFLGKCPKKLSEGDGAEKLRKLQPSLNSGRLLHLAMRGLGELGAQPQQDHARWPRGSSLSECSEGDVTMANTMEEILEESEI

Male Sprague Dawley rats = test: Small intestine weight and histology after eleven-day subcutaneous dosing in rats; format: in vivo
Experimental: Dosing was as follows: Vehicle group dosed with saline daily; PE0503 Q1D dosed with PE0503 at 1.3 mg/kg once per day; PE0503 Q2D dosed with PE0503 at 5.1 mg/kg every other day; PE0503 Q4D dosed with PE0503 at 20.5 mg/kg once every four days; GLP-2(A2G) TID dosed […] with 0.1 mg/kg GLP2(A2G).
Male Sprague Dawley rats (200-220 g, n=12/group) were injected subcutaneously with PE0503 or GLP-2 (A2G) peptide over an eleven-day dosing period as shown in Table 5.
The animals were sacrificed on day 12 and a mid-line incision was made, the small intestines were removed, stretched to their maximum length and measured. The fecal material was then flushed from the lumen and the small intestine weight was recorded.

[2] = system: normal mice (strain FVB/nj); test: Linear growth of normal mice, daily injection for three weeks; format: in vivo; details: injected daily for three weeks, mice 3 weeks of age, vs saline; FIG. 3A-C
Experimental: Effect on growth was determined by measuring nose to tail length (A), nose to anus length (B), and tail length (C). The graphs show the mean change in growth versus baseline over the 3 week period.
The above constructs were injected daily in normal mice (strain FVB/nj) for three weeks. The mice were 3 weeks of age at the start of the experiment. The effect on linear growth of the mice was determined by measuring tail length, nose to anal length and nose to tail length after each week of dosing in comparison to a control group injected with normal saline. […] There was no significant effect on body weight.

GLP-2 receptor [3] = test: cell-based or functional assay

EC50 (GLP-2 receptor [1]): 1.75 nM
B1: PE0503: GLP-2 sequence with A2G mutation on the N-terminus of the ELP1-120 sequence (protein)
chain: HGDGSFSDEMNTILDNLAARDFINWLIQTKITDVPGVGVPGVGVPGGGVPGAGVPGVGVPGVGVPGVGVPGGGVPGAGVPGGGVPGVGVPGVGVPGGGVPGAGVPGVGVPGVGVPGVGVPGGGVPGAGVPGGGVPGVGVPGVGVPGGGVPGAGVPGVGVPGVGVPGVGVPGGGVPGAGVPGGGVPGVGVPGVGVPGGGVPGAGVPGVGVPGVGVPGVGVPGGGVPGAGVPGGGVPGVGVPGVGVPGGGVPGAGVPGVGVPGVGVPGVGVPGGGVPGAGVPGGGVPGVGVPGVGVPGGGVPGAGVPGVGVPGVGVPGVGVPGGGVPGAGVPGGGVPGVGVPGVGVPGGGVPGAGVPGVGVPGVGVPGVGVPGGGVPGAGVPGGGVPGVGVPGVGVPGGGVPGAGVPGVGVPGVGVPGVGVPGGGVPGAGVPGGGVPGVGVPGVGVPGGGVPGAGVPGVGVPGVGVPGVGVPGGGVPGAGVPGGGVPGVGVPGVGVPGGGVPGAGVPGVGVPGVGVPGVGVPGGGVPGAGVPGGGVPGVGVPGVGVPGGGVPGAGVPGVGVPGVGVPGVGVPGGGVPGAGVPGGGVPGVGVPGVGVPGGGVPGAGVPGVGVPGVGVPGVGVPGGGVPGAGVPGGGVPGWP
modifications: pPE0503-GLP-2(A2G)-ELP1-120
small intestine weight (Male Sprague Dawley rats; compared to placebo, day 12, even when dosed every fourth day (Q4D), FIG. 4): highly significant increase
villus height (histological analysis of sections of the small intestine) (Male Sprague Dawley rats; compared to vehicle (saline)): clear increase

B2: PE9306: CNP37 on N-terminus of ELP1-120 with Cathepsin K site 1 (Arg-Lys-Pro-Arg/Gly); SEQ ID NOs: 125 & 126 (protein)
chain: QEHPNARKYKGANKKGLSKGCFGLKLDRIGSMSGLGCRKPRGVPGVGVPGVGVPGGGVPGAGVPGVGVPGVGVPGVGVPGGGVPGAGVPGGGVPGVGVPGVGVPGGGVPGAGVPGVGVPGVGVPGVGVPGGGVPGAGVPGGGVPGVGVPGVGVPGGGVPGAGVPGVGVPGVGVPGVGVPGGGVPGAGVPGGGVPGVGVPGVGVPGGGVPGAGVPGVGVPGVGVPGVGVPGGGVPGAGVPGGGVPGVGVPGVGVPGGGVPGAGVPGVGVPGVGVPGVGVPGGGVPGAGVPGGGVPGVGVPGVGVPGGGVPGAGVPGVGVPGVGVPGVGVPGGGVPGAGVPGGGVPGVGVPGVGVPGGGVPGAGVPGVGVPGVGVPGVGVPGGGVPGAGVPGGGVPGVGVPGVGVPGGGVPGAGVPGVGVPGVGVPGVGVPGGGVPGAGVPGGGVPGVGVPGVGVPGGGVPGAGVPGVGVPGVGVPGVGVPGGGVPGAGVPGGGVPGVGVPGVGVPGGGVPGAGVPGVGVPGVGVPGVGVPGGGVPGAGVPGGGVPGVGVPGVGVPGGGVPGAGVPGVGVPGVGVPGVGVPGGGVPGAGVPGGGVPGVGVPGVGVPGGGVPGAGVPGVGVPGVGVPGVGVPGGGVPGAGVPGGGVPGWP
modifications: CNP37 CatK ELP1-120 fusion PE9306
rate of linear growth (tail length, nose to anal length, nose to tail length) [2]: faster rate of linear growth

EC50, cell-based cAMP potency assay (GLP-2 receptor [3]): 1.75 nM
Molecule: HGDGSFSDEMNTILDNLAARDFINWLIQTKITD (ligand, part only; not given: ELP carrier, part only) [PE0503]
